Columns and labels:
[1] = target: the molecule itself; assay: crystal structure; My11–My13 at 10 mg/ml; 0.1 M MES pH 6, 0.22 M lithium sulfate, 13% PEG 8000; 3.5 Å; molecular replacement with the (My13)2 dimer module of 2R15
[2] = target: the molecule itself; assay: small angle X-ray scattering (SAXS); 4–15 mg/ml, 25 mM Tris/HCl pH 7.5, 150 mM NaCl, 290 K; extrapolated to infinite dilution; mass by comparison with bovine serum albumin

| Protein | binding result [1] | stoichiometry N [2] |
| --- | --- | --- |
| myomesin My11–My13 (residues 1352–1666) (domain or fragment, human, UniProt P52179 1352-1666, looked up, myomesin (MYOM1), human, Ig domains My11–My13, residues 1352–1666 of MYOM1_HUMAN; Vector pET151/D-TOPO with N-terminal His6 and TEV site; also called My11–My13 triplet; source: E. coli BL21 (DE3) CodonPlus-RP, purified (Ni-NTA, size exclusion chromatography)) WIRKQGPHFVEYLSWEVTGECNVLLKCKVANIKKETHIVWYKDEREISVDEKHDFKDGICTLLITEFSKKDAGIYEVILKDDRGKDKSRLKLVDEAFKELMMEVCKKIALSATDLKIQSTAEGIQLYSFVTYYVEDLKVNWSHNGSAIRYSDRVKTGVTGEQIWLQINEPTPNDKGKYVMELFDGKTGHQKTVDLSGQAYDEAYAEFQRLKQAAIAEKNRARVLGGLPDVVTIQEGKALNLTCNVWGDPPPEVSWLKNEKALASDDHCNLKFEAGRTAYFTINGVSTADSGKYGLVVKNKYGSETSDFTVSVFIP | binds | – |
| myomesin My9–My13 (residues 1141–1666) (domain or fragment, human, UniProt P52179 1141-1666, looked up, myomesin (MYOM1), human, Ig domains My9–My13, residues 1141–1666 of MYOM1_HUMAN; Vector pET151/D-TOPO with N-terminal His6 and TEV site; also called C-terminal myomesin filament; My9–My10–My11–My12–(My13)2–My12′–My11′–My10′–My9′; source: E. coli BL21 (DE3) CodonPlus-RP, purified (Ni-NTA, size exclusion chromatography)) TKEVVVNVDDDGVISLNFECDKMTPKSEFSWSKDYVSTEDSPRLEVESKGNKTKMTFKDLGMDDLGIYSCDVTDTDGIASSYLIDEEELKRLLALSHEHKFPTVPVKSELAVEILEKGQVRFWMQAEKLSGNAKVNYIFNEKEIFEGPKYKMHIDRNTGIIEMFMEKLQDEDEGTYTFQLQDGKATNHSTVVLVGDVFKKLQKEAEFQRQEWIRKQGPHFVEYLSWEVTGECNVLLKCKVANIKKETHIVWYKDEREISVDEKHDFKDGICTLLITEFSKKDAGIYEVILKDDRGKDKSRLKLVDEAFKELMMEVCKKIALSATDLKIQSTAEGIQLYSFVTYYVEDLKVNWSHNGSAIRYSDRVKTGVTGEQIWLQINEPTPNDKGKYVMELFDGKTGHQKTVDLSGQAYDEAYAEFQRLKQAAIAEKNRARVLGGLPDVVTIQEGKALNLTCNVWGDPPPEVSWLKNEKALASDDHCNLKFEAGRTAYFTINGVSTADSGKYGLVVKNKYGSETSDFTVSVFIP | – | 2 |
